Patent publication US20060234940A1
Where no end group is shown, it is not given here. The star is where a group is joined. Thia = thiazolidide, C1CN(*)CS1

How the values were obtained:
[1] = biological target: recombinant human DP IV, wild type (human) (UniProt P27487); assay: photometric assay, competition with the standard substrate GP-4NA
[2] = biological target: recombinant human DP IV, wild type (human) (UniProt P27487); assay: MALDI-TOF MS, inhibition of DP IV-catalyzed truncation of the substrate glucagon after preincubation with TFTSDY
[3] = biological target: recombinant human DP IV, wild type (human) (UniProt P27487); assay: MALDI-TOF MS, inhibition of DP IV-catalyzed truncation of the substrate PACAP-27 after preincubation with TFTSDY
[4] = biological target: recombinant human DP IV, wild type (human) (UniProt P27487); assay: MALDI-TOF MS, inhibition of DP IV-catalyzed truncation of the substrate PACAP-38 after preincubation with TFTSDY
[5] = biological target: recombinant human DP IV, wild type (human) (UniProt P27487); assay: MALDI-TOF MS, inhibition of DP IV-catalyzed truncation of the substrate GIP after preincubation with TFTSDY

recombinant human DP IV, wild type (human), sequence (P27487 other isoform, or with tags, fused parts or gaps): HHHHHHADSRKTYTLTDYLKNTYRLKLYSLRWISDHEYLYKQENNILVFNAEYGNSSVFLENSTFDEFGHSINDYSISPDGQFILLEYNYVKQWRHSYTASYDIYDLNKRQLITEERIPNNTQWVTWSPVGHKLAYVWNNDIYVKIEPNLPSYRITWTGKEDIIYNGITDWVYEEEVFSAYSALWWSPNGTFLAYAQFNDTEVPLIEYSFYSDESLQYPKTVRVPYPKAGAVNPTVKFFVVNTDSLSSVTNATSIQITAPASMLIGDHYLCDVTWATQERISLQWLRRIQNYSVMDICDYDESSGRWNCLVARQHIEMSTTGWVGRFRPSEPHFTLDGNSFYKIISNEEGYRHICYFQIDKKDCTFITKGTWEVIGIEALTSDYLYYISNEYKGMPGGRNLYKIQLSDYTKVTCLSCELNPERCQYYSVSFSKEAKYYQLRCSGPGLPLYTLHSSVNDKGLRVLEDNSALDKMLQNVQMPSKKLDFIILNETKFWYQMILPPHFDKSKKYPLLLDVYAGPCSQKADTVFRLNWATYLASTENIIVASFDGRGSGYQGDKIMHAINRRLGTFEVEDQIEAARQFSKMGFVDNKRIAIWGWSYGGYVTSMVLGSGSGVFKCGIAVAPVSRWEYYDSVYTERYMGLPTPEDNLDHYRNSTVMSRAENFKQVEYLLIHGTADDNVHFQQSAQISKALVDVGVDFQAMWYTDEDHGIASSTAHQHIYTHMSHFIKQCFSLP

Binder	Ki [1] [µM]	Ki [2] [µM]	Ki [3] [µM]	Ki [4] [µM]	Ki [5] [µM]
YAESTF-NH2 [YAESTF amide]	0.0351				
RRLSYSRRRFE-Thia (also: linkage of decapeptide to Glu not explained) [Transp 01 (…-E-Thia)]	0.0508				
HSDGIFTDSYSRYRKQMAVKKYLAAVLGKRYKQRVKNK (peptide, UniProt P18509 132-169, looked up, ends and bridges not checked) [PACAP-38]	38.3				
TFTSDY [hexapeptide TFTSDY]		3.7	26.7	2.8	14
